Experimental data: the domain aggregation screens of Martell et al. (2025)

assay: soluble fraction after stress (log2 fold change); higher = more stays soluble; pooled small domains, quantitative proteomics; conditions: stress: pH 4
Summary of the method: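 After pH 4 stress, pooled custom libraries of small protein domains were quantified with high-throughput quantitative proteomics. Aggregation propensity is taken from the fold change in each domain's soluble amount following the acid stress. The scale is log2, where higher values mean more stayed soluble.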

Sequence | soluble fraction (log2)
HMPVLDETVPAALDGERIDRVVALLADVSRNRAGIAIAAGSVRLDGAVVTQRSRKVRADEELVVDGLER | -0.00165
HMAAVEDLPVKSVNGKKYHYYTVQPKESLYSLSHKLGISRQEIIKYNPGVEDGLKAYEDLLFPYTPK | -0.419
HMAGTRRFELVEGSSSKFWEVTVADGSYTVTYGRIGTAGGSKTTESATAEADAEKLVREKLKKGYQEAGAA | 0.128
HMGGKWSMPIIYILSKGKMRFKELERSVEGINTRMLVKELKNMEANGIVTREVFPTVPPTVEYALT | -0.178
HMSFNSQENKSVLWQFLLENNFFIGLSDKKFNKVKDIFEKNIQSISIVNDSISNKNKILIQKMMEELELL | -1.46
HMPIQLLSEKYMDEHWDELDKDEVSLYQNMSIRFLLKHEDDINWKLYSTNPFISIDTIDFFKDKISWVNI | -1.45
HMSGPFTELTPREREILSHLAEGQSNKVIARHLQISDGTVKLHVKAILRKLEVHSRVEAAVMAVEHGV | 0.0256
HMLRVGASVTANGKYWYDSYGSKPFGTANNLSTTVTRIVPGNPYPIHIGSYGWLQESQIQIT | 0.204
HMPSHALFWTLLKEVPGYDPHYKDVIKEGIVHEHSGGRTTSLSEMYTKYPREYSLMIEAMKG | -0.326
HMTALAVGDRVKMDKSATIYGTMRKFAAWVYATKLYVRGIDGNRVVVSTLKSGAITGAVDKKHLTK | -0.0515
HMDSDIGQQLKILLTVGTFMPSTELKAIAQQFGMKKPTDLKEWVELESDTQRIKGNPTKGYWINEINDL | -0.262
HMSELADDPVYTALEKAADKAGLQLTVRILNDLADAVLKRGKKKLTAAQAGKVIARAESELAKSRID | ≥ 0.43
HMSDIYSLFERELGRTLSSYEYEIIGKWIEKGVSEDTIKRALKEAILNGVTNFKYIDKIIYDWSKN | -1.05
HMKKTPLSELTNRAVELFIETVFMERNYSVSSQRQFISALKIFTVFYPQTKIHNLSLERLQSSFDKLLN | -0.564
HMDSLSLTELRIDSASPWIGNRISDFSPYAGELVIMIIRGEETIVPNGDTIILDKDLLVIYSS | -1.39
HMGTGELLVHVIGAVHSPGVVRLPTGARVVDAIDAAGGAREDAQTEQLNLARLVDDGEQVRVPVVGESVD | 0.00081
HMSAPVFRITPAGVVVNGLKRSDILTLTRIDGAMNTLPHNAGEVLVSTEGLAKGVYVITAGGKSLKFLV | 0.00157
HMGDSVLNDKLNTLAGLDEERFKWVLASLNPNNSYSTHSDKMSALMWLVSYFNDEADLKETVPPLPI | -0.325
HMEMDITIQMRTLVEELNRASDAYYNGRGELMTDYEWDAKFDQLKQLESQSGVVLPDSPTHRV | -1.51
HMTRYQHLAMLLEKRIAQGLYRNGERLPSVRSLSAEHGVSISTVQQAYYLLEQKQLIIPQSRSGYYVAPH | -0.378
HMNGPTPEEKLAVVNAEFVRQYGDEYEELELEGEELEEYYQKALNKEDFEYDIPHLPGWDEP | -0.905
HMPKTATIVIDLNYADAKEIVENLQTILAGETKDISVAPHPSANQIIASGDRWEVENISTIIKQLDR | -1.02
HMQDLEIKINLGMTYYEVREAIGSPDIIDKINQYGRDFQMWTYYIDDKTKRYYFEDHLLTKI | -1.65
HMVQDSEWWRNYQSAHDYFIQNGHLNVLRSDKKNTKLYNWIVGQRSSRWNSQGRINLLNSIGFIWDT | -1.65
HMRGDEDTGVWPTPMKRAYIDSLLKGYPTGVTMIVKPPGASHTTKWMILDGANRARALRDFMNDEFMI | -0.155
HMFQTAADVAYRIISQKILDGEFPPGMKLSRRKMAEVTSVSVIPVIEALKKLEEDGLVESKPQWGSFVTI | -0.246

Sequence | soluble fraction (log2)
HMRLSAADLQSYLKGMDYPASRQDLIAHARGHNAPEEAVATLEQFSDRTYRSAADVSVEFGRE | 0.309
HMFYLPEPLTEQELRILGMLLDGRSNPEIAAELFIAVGTAKWHVHNILQKLGVANRAQAIVKAHELGLT | -1.88
HMSPKYLELVRWINTQIQEKKLTAGQKMYSENELKEMFGVSRQTVRHAISVLEGEGMIRRVRGSGTYINDN | -0.043
HMENIIKISASYEGLRVDQFLSNYLKISRSKVQKYISEEKIFLNNVPTKTNRKVKLDDIISYNLNF | 0.0839
HMHNSQTIIDNIKRIANEQNISLSKLAVISGLGKNTITSMTAKTNIKIETLTAIAKSLNVSIHDLTGE | 0.0739
HMKISIPQEYFEIYNVLKQRPMHINEISKILKKPVSEISGTISLMEIEGYITKLTTDQYVLKKI | -0.644
HMFWVESDVDFVDKTSAHNAIKENERVIGMYISYRLNGTWTTEQYVGIDTSKDNWENPDNWNIL | -0.381
HMYSFPHQLLKLRTEKQLSQAELATRLFVSRQAVSKWENGDAEPSIDKLILLAKVFNVSLDRLILGT | 0.18
HMIIVMRKGATEAQVNDIVERVRAAGFGVHLSQGEERTIIGAIGGDRAVLADLNLEAAPGVERVTPIS | -0.0491
HMNLTSSDIQKILSYALLADNSITLNSIEESMASLKLKKMSAEQLIELLEVSSMVLRNTNNSWSIL | -1.32
HMGESVQVPSYVGMGFREAARKARARDFGVAVSDSIYVPGKPPGEIIAQDPKAESRVKEGRTIYFTVAK | -0.0612
HMEVPQKTLEILEPWRGRKGFLIPVLQAVQHEFGYVPKEAIETVSREMKMPTAEIYGVVTFYAQFH | -0.513
HMDRFVLQLSKRYYDSSIEGVRKALAAFPVKTELLDQDRGGRPFYHENGKENEPVFRIMFHPEEGM | -0.116
HMLHVRSALMSELDGIEGIGEKRKRLLFDAFITRDAIAAATLEQLMAVKGMNRPSAEAVHKHFHG | 0.203
HMNVEVDSIGDDDFLVKVSAGTSTEHRVTLTDAYWEQIWSSSLPKKEIISLSFAFLLEREPNSSIMRT | -0.937
HMEALGLSPRQVDVLRLLVEGRSNKMIMRELELSESTVKTHLQAIFRRLGVSSRTQAVVAAARLGL | -0.418
HMSQPLYWQIRRMVIDHDDANDVLQNTFIKAWSNIGSFRGDAKFSTWLYKIAVNESITFINKKKVQN | -0.0472
HMDQTKYDAIITEAKKLTAEGQYKESEEKLATIPVSDLGKPHYSIVKETVEKLNNQNNEGLKRQEEVAVE | -0.0626
HMFAKVEGITGDILDKLQQQRGFLALSDKSSPEAIYDTFGVSKKVFKQAIGTLFKQQKISIEAEGIRLV | -0.0102
HMVSVPDIGEKLPDFTGTPKRLLTPLLNKNDVNIIIKGDGWVVSQKPPAGTPVTKGMTIEFTL | -0.0317
HMSRVHHGFNISIARNRKGLKQAALADMLGISQQRLSQLENQRVVKDEILEKVSEATGVSVEDLKTIE | 0.171
HMSGSPREQAESEYRKAIAAVNQGRVSEATESLRAALRLDAFQVAARQLLVKLLLEAKNQDEAIQVLR | -0.489
HMEQIPEEYKKIYSLITDIPININDIAKKSLLELREVSSKLTMLELDGKVVKLPGNMYIRGDL | -0.0736
HMTDVRFISIPIQKEHPWNRKLVSELNLPPGTLLVFLRRTGENIVPNGKTMIQEGDVLVLGASAYR | -1.04
HMVIDFYDPQTKVIHEIKKSSAKEEAHVWQVKYYIYLFEKEEIMGVKGVLEYPLLREIVSVNF | -0.0844
HMDAATDAIKAEVRALLEMANAQGIDTESIMLEAHEQTRNATEQDYYEAAKSALEAAIAGSNRDR | -0.319

Sequence | soluble fraction (log2)
HMSQDPLETYYPQWSAAVKQSNPDAEIIRDTDGKYYVEGMTKNRVAVIYENPHLVRLVNATTNVHVE | 0.238
HMDREQLELYVGEVRVLQVGELRRIAIGNGKVLQASALDRGQLLLIPEAPGQSVLYLWTRDGTERHLSISV | -0.81
HMGFVTVTEVDTTADLKLARVYVSVLGPEEQWAKSFTALESARGFVWNWLRKHLDLRVTPQLAF | -1.74
HMNRPQDLGEPYDGQFREHPEAWAFYAAQSPSYRRSASWWVLGAKQEVTRQRRLAALIDASAQGTRIPALT | -0.0491
HMNMSVGAALRRRRNELGMTLRELADEAELTSGFLSQVENDRVSPSLKSLGRIAEVLRIPLFQLLS | -0.659
HMADGTSIYAEREVLYVTSPTANTAKVYNVSGALVRTMTLSAGQTVRTALPAGFYVVALGNGNTHKVIV | 0.0275
HMSVHSAELKKLKAHLLGIIGRELETQPSTENREEMVRQILHQSYESLRLNLPMQLKEELFNEILAEVL | -0.689
HMSNIQLAANLQRLRKDHHFTQTQFSKKLNISRQAYSNYETGKRIPDLDIIIRIANIYHISLENLL | -0.203
HMSFPFLMPNLEGLQLDQVRVILEENGLEIGQENYQPDSKFGPGTIINHQPSVDTVVQTGQKVNLQISGTD | -1.14
HMYNPAYDAEIKVILELARHGYWEEARERADELLKAAPDDTGVKRIQTWVRQQEQRMREQAIEDSIRA | -0.206
HMNTEEITYSRFQQMLEAGEISQVSIESNRILILPSEETGIEKVLYTGIINDPGLVERLNSAGVEFRAPIE | -1.16
HMGDFVIVPDLIGKTIEEFDSELNELNLKYIISDSGNYNPDFKINSVLDQLPNANSKVKGGRKIYITLNAS | -1.48
HMKDTFHNLSEEKRERIIRAALGEFAASGYEKATLDGVVQAAGISKGGLYEYISSKEDLFRYLLEYSYD | -1.43
HMKNETFAITSEDAGKRLDVWLTNILGDYSRSYVERLVEQGNVTVGGKTVKAGYKLKAGDSVQVSIPGPK | 0.0982
HMAASGTVNSGGDPLRVRADPNTSSQILTKLSDGTQVEVLEQAENGWYKIAHEGISGFVSGEYLVVH | -0.356
HMENLRLSELTVERGHRLAGRTLADIASAPNSPKYLIVLIQRGQETVIPTGSTVILPGDVLILAQS | -0.749
HMSKHATLLEALADLSVKLKPHSQLPSERALSEEYGVSRMTLRRAIDVLQARGYIYSVPSKGLFVSEP | -0.0584
HMPESYFEMLQKLLETYALPQEGTIYFSAADLARMPQKFEDVIEQTAQKKGGHLVVSKEPKDMDGGFVLV | -1.62
HMDVDKQLDQLLAAMIPDKSLRQTIKTKAFNELVDNELADKDISSWTKQTMDVFMTRAEDMFGAM | -1.43
HMNGDWISARQEYYIRGLWDLASRAKDEASLQAMLQRIAGVTQIEWISKEKATKVILALRDIAKK | -0.154
HMGYSDEIGEFIKKLRTENHLTQKEFADKYGVTYQAVSKWENGKNLPDMSLIKQMSEDFNIGIDELLDGEK | -0.454
HMRLPAISYSFARKHGVVLRLDGDRPVASLREGADPAILIEVKRHLDGAMGVEKVSEAAFDQLLSTTYA | -0.436
HMDAKNNPQVMAQIRAILTAKGLSEDEVKTRLKTKNIDVDKMTDQEIIAQRPAIEAIINEMEQEKKQKMG | 0.142
HMEANPLTDREKEVLELVADGKNTKEIAQELSIKSGTVRNYISMILEKLEVKNRIEAITRSKEKGWF | -0.025
